Test [1] concerns the target T1, CD73 on the surface of human tumor cells (human, UniProt P21589 27-549).
T1 chain: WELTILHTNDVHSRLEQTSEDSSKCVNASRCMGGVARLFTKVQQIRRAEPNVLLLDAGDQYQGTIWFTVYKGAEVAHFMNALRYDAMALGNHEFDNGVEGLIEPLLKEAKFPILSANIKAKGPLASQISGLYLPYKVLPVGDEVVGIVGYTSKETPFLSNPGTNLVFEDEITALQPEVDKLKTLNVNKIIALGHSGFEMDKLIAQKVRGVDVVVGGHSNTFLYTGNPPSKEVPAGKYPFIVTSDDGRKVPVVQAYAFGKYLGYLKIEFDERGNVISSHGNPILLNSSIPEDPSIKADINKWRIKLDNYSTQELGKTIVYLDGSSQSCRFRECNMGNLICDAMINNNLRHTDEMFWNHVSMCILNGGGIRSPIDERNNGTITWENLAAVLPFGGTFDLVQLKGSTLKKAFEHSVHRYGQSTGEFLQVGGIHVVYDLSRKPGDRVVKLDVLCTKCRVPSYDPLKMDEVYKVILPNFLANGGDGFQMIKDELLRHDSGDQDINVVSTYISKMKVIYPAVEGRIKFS
The experiment in a line: FACS; NCI-H1299 cells, left table. (In general: In flow cytometry, cells or beads pass a laser one at a time.)

Test [2] addresses T2, extracellular domain of human CD73 protein (CD73-ECD), C-terminus polyhistidine-tagged (UniProt P21589 27-547).
T2 chain: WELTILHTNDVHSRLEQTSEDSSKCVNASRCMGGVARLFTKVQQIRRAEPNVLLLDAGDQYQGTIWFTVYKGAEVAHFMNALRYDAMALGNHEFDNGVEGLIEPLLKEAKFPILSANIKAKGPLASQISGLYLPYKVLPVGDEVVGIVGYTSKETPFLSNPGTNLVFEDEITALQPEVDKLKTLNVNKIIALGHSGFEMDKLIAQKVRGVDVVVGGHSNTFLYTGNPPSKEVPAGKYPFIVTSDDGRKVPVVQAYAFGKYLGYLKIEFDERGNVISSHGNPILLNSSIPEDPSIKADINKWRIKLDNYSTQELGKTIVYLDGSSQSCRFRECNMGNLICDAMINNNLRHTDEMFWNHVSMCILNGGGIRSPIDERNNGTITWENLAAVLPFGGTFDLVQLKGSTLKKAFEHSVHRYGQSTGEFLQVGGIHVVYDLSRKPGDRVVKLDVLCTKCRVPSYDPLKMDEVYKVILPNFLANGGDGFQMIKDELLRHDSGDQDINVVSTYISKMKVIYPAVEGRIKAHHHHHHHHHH
Briefly: enzyme inhibition; left table.

Test [3] deals with T1, CD73 on the surface of human tumor cells. The experiment in a line: FACS; MDA-MB-231 cells.
Test [4] has as its target T3, Carbon-terminal polyhistidine-labeled recombinant cynomolgus monkey CD73 enzyme (cynomolgus monkey, UniProt A0A2K5V5U7 1-547).
T3 chain: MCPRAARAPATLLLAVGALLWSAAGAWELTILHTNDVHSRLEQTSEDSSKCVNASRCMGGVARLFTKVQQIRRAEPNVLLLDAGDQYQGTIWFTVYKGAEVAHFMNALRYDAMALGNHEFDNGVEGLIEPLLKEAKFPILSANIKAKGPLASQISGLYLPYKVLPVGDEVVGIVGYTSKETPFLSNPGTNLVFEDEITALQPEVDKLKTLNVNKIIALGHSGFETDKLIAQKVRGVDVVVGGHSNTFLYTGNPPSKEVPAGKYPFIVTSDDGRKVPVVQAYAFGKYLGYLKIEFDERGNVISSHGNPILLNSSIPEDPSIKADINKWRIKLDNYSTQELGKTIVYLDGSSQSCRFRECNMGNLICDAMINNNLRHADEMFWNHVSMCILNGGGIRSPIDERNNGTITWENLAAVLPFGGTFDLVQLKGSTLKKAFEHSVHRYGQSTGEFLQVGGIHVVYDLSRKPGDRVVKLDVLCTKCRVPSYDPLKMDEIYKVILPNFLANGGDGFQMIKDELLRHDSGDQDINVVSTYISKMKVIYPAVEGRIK
The experiment in a line: enzyme inhibition; left table.

Test [5] deals with T3, Carbon-terminal polyhistidine-labeled …. Briefly: enzyme inhibition; right table.
For test [6], the target named is T1, CD73 on the surface of human tumor cells. Briefly: FACS; MDA-MB-231 cells, right table.
Test [7] shares this target. The experiment in a line: FACS; MDA-MB-231 cells, left table.
Test [8] addresses T2, extracellular domain of human CD73 …. Briefly: enzyme inhibition; right table.
Test [9] deals with T1, CD73 on the surface of human tumor cells. The experiment in a line: FACS; NCI-H1299 cells, left table.
Test [10] has the same target. The experiment in a line: inhibition of cell-surface CD73 enzyme activity; left panel.
The target is the same in test [11]. Briefly: FACS; NCI-H1299 cells, right table.
The target is the same in test [12]. The experiment in a line: FACS; MDA-MB-231 cells, right table.
Test [13] shares this target. Briefly: FACS; MDA-MB-231 cells, left table.
Test [14] has the same target. The experiment in a line: inhibition of cell-surface CD73 enzyme activity; right panel.

What is called EC50 is the concentration that produces a half-maximal response. As a reminder, the IC50 is the concentration at which inhibition is half-maximal.

B1: mAb001c (antibody, V domains shown)
VH: QVQLQQSGPELVKPGASVRISCKTSGYTFTNYYIYWVKQRPGQGLEWIGWIYPGNLNIKYNEKFKGKSTLTADKSSSTAFMQLSSLTSEDSAVYFCARDDNYAWFAYWGQGTLVTVSS
VL: DIVMTQSHKFMSTSIGDRVSITCKASQDVSTAVAWYQQKPGQSPKLLIYWTNTRHTGVPDRFTGNTSGTEHTLTISSVQAEDLALYYCQQHYSTPFTFGSGTTLEIK
For the molecule B1, the concentration giving a half-maximal response (EC50) in test [1] is 1.48 nM; in test [3], 1.19 nM; in test [6], 0.618 nM; in test [7], 0.45 nM. Further, the IC50 was found to be 0.03 nM in test [2], 0.04 nM in [4], 0.04 nM in test [5] and 0.02 nM in test [8].

B2: mAb002c (antibody, V domains shown)
VH: QVQLQQPGAELVKPGASVRLSCKASGYTLTSYWMHWVKKRPGQGLEWIGEINPSNGRSNYNEKFKSKATLTVDRSSSTVYMQLGSLTSEDSAVYYCARRGVSGNYFDYWGQGTTLTVSS
VL: DIKMTQSPSSMYASLGERVTMTCKASQDINTYLSWFQQKPGKSPKTLIYRSNILVDGVPSRFSGSRSGQDYYLTITSLEYEDMGIYYCLQYDEFPYTFGGGTKLELK
As for B2, the IC50 in test [2] is 0.037 nM; in [10] it was 0.317 nM; in test [4] it was 0.039 nM; in test [5], 0.039 nM; in test [8], 0.038 nM; in test [14] it was 0.363 nM. In addition, the 50% effective concentration (EC50) is 0.544 nM in [3]; 0.658 nM in [9]; 0.53 nM in test [11]; 0.466 nM in [12]; 0.466 nM in test [13].
